Consider one molecule from publication PMC6898792 (2019).

Assay [1] deals with VEGFR2 (monomer) (Homo sapiens, UniProt P35968). The assay is described as follows: global fit.
Assay [2] addresses VEGFR2 (dimer) (Homo sapiens, UniProt P35968). Briefly: global fit.

Chain of VEGFR2 (dimer) (P35968 20-1356): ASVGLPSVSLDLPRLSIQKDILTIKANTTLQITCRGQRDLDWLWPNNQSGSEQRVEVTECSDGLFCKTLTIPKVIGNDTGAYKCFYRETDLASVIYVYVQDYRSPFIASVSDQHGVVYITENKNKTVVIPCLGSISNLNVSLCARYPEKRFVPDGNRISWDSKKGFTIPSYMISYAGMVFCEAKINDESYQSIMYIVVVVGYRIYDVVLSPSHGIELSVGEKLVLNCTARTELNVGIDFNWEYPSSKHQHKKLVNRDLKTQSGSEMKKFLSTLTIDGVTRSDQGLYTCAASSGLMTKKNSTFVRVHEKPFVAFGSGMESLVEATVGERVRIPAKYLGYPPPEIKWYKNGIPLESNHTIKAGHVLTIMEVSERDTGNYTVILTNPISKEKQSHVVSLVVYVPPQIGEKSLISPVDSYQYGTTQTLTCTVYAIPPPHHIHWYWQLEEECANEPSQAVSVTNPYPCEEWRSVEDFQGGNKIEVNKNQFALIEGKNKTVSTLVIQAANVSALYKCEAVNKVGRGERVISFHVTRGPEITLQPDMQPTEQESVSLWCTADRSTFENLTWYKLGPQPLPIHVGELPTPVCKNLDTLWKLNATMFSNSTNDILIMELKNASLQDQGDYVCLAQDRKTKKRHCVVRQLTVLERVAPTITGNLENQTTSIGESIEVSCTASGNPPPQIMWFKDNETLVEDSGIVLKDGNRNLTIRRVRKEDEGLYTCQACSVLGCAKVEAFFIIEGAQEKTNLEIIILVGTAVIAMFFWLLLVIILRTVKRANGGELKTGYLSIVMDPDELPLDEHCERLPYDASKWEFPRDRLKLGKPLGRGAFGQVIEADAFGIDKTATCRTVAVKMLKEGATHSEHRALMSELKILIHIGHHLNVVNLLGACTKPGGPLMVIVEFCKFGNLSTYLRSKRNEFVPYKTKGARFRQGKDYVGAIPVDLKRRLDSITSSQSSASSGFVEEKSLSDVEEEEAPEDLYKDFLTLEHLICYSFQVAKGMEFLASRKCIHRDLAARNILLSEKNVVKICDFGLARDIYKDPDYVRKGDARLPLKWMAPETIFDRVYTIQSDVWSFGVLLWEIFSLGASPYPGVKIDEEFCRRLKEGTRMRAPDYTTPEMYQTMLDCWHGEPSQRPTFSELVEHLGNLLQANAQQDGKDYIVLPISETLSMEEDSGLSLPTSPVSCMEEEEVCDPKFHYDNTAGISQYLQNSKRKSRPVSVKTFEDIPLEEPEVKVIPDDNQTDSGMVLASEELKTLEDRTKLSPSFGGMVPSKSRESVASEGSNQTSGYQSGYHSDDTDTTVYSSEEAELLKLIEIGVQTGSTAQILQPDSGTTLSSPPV
Chain of VEGFR2 (monomer) (P35968 20-1356): as above

B1: VEGF (protein)
chain: MTDRQTDTAPSPSYHLLPGRRRTVDAAASRGQGPEPAPGGGVEGVGARGVALKLFVQLLGCSRFGGAVVRAGEAEPSGAARSASSGREEPQPEEGEEEEEKEEERGPQWRLGARKPGSWTGEAAVCADSAPAARAPQALARASGRGGRVARRGAEESGPPHSPSRRGSASRAGPGRASETMNFLLSWVHWSLALLLYLHHAKWSQAAPMAEGGGQNHHEVVKFMDVYQRSYCHPIETLVDIFQEYPDEIEYIFKPSCVPLMRCGGCCNDEGLECVPTEESNITMQIMRIKPHQGQHIGEMSFLQHNKCECRPKKDRARQEKKSVRGKGKGQKRKRKKSRYKSWSVPCGPCSERRKHLFVQDPQTCKCSCKNTDSRCKARQLELNERTCRCDKPRR
As to B1, the Kd in assay [1] came out at 10 nM; in assay [2], 0.23 nM.
